{
  "source": "patent US20240199724A1",
  "about": "(THELPER, published 2024)",
  "key": {"[1]": {"target": "US28 of HCMV strain DB with C-terminal 6His tag, on CHO-US28-A1 cells (human cytomegalovirus (HCMV) strain DB) (UniProt P69332)", "test": "flow cytometry, secondary antibody alone on CHO-US28-A1 cells"}, "[2]": {"target": "Bio-Peptide-2 (human cytomegalovirus (HCMV), 4D variant)", "test": "ELISA (FIG. 5)"}, "[3]": {"target": "T1, US28 of HCMV strain Ad169, on infected MRC-5 cells (human cytomegalovirus (HCMV) strain …, UniProt P69332 1-354)", "T1 sequence": "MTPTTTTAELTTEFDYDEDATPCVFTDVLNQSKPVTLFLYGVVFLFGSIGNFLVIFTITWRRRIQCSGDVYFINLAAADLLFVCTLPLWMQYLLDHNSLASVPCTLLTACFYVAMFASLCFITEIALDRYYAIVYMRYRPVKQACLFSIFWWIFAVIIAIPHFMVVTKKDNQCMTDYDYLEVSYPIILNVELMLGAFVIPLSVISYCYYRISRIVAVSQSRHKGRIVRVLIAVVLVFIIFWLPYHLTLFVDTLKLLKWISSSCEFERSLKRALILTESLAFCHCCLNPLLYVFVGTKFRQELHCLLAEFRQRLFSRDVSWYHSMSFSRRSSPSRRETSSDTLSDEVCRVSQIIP"}, "[4]": {"target": "T2, US28 of HCMV strain DB with C-terminal 6His tag, on CHO-US28-A1 cells (human cytomegalovirus (HCMV) strain DB, UniProt P69332 1-354)", "T2 chain": "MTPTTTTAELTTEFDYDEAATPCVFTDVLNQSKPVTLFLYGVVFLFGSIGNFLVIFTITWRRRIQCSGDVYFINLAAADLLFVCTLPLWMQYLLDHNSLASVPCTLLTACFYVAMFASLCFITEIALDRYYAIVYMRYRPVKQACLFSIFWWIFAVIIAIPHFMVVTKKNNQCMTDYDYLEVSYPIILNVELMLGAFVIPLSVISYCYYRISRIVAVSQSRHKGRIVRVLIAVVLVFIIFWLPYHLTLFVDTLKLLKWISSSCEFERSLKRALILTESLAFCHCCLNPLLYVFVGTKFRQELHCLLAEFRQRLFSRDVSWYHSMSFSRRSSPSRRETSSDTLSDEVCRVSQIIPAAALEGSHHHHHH", "test": "flow cytometry"}, "[5]": {"target": "T2, US28 of HCMV strain DB with C-terminal …", "test": "flow cytometry, 1:50 (w/v)"}, "[6]": {"target": "T3, mutated US28 (artificially created mutated strain) with C-terminal 6His tag, on CHO cells (human cytomegalovirus (HCMV), …, UniProt P69332 1-354)", "T3 construct": "also called CHO-mutated strain; mutated form of US28", "T3 chain": "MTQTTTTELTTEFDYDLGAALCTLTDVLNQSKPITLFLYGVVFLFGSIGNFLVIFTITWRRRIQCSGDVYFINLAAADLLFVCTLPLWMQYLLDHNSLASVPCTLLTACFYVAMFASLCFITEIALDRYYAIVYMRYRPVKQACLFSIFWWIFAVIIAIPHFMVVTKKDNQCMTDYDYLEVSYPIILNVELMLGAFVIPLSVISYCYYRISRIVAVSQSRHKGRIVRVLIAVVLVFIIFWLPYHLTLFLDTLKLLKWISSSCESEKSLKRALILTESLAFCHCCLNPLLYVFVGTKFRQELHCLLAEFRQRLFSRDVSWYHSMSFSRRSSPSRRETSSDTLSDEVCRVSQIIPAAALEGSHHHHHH", "test": "flow cytometry, CHO cells expressing the mutated US28"}, "[7]": {"target": "T2, US28 of HCMV strain DB with C-terminal …", "test": "flow cytometry, CHO cells expressing US28 of strain DB"}, "[8]": {"target": "T4, US28 of HCMV strain TB40/E with C-terminal 6His tag, on CHO cells (human cytomegalovirus (HCMV) strain …, UniProt P69332 1-354)", "T4 construct": "also called TB40/E form of US28", "T4 chain": "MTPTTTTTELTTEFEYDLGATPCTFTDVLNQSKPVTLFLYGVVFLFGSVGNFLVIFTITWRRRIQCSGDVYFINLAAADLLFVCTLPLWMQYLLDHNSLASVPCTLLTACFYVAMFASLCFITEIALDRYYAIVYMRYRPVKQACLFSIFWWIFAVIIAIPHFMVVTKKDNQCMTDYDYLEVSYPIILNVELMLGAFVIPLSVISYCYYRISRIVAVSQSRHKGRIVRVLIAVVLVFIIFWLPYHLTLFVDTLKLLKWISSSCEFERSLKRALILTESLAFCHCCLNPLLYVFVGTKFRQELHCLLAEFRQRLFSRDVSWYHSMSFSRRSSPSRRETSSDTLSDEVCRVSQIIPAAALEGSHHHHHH", "test": "flow cytometry, CHO cells expressing US28 of strain TB40/E"}, "[9]": {"target": "T3, mutated US28 (artificially created …)", "test": "flow cytometry, CHO cells expressing the mutated US28 (FIG. 21B)"}, "[10]": {"target": "T4, US28 of HCMV strain TB40/E with …", "test": "flow cytometry, CHO cells expressing DB or TB40/E US28 (FIG. 21C)"}, "[11]": {"target": "T4, US28 of HCMV strain TB40/E with …", "test": "flow cytometry, CHO cells expressing DB or TB40/E US28 (FIG. 21D)"}, "[12]": {"target": "T2, US28 of HCMV strain DB with C-terminal …", "test": "flow cytometry, CHO-US28 (DB) cells against control CHO cells, background subtracted"}},
  "note": "Where “and” joins values, the source holds several entries; their conditions need not be identical. Equal values may be shown once.",
  "data": [
    {"molecule": "Goat anti-mouse IgG-Alexa 488 (antibody)", "values": [
      {"measurement": "percent of cells bound", "setting": "[1]", "result": 1.63, "unit": "%"}
    ]},
    {"molecule": "US28-13-5G6-1D3 antibody (antibody) heavy: EVKLVESGGGLVQPGGSLRLACATSGFTFTDYYMSWVRQPPGKALEWLGFIRSKANGYTTEYSASVKGRFTISRDNSQSILYLQMNTLRSEDSATYYCARDERRTAWLAYWGQGTLVTVSAAKTTPPSVYPLAPGSAAQTNSMVTLGCLVKGYFPEPVTVTWNSGSLSSGVHTFPAVLQSDLYTLSSSVTVPSSTWPSETVTCNVAHPASSTKVDKKIVPRDCGCKPCICTVPEVSSVFIFPPKPKDVLTITLTPKVTCVVVDISKDDPEVQFSWFVDDVEVHTAQTQPREEQFNSTFRSVSELPIMHQDWLNGKEFKCRVNSAAFPAPIEKTISKTKGRPKAPQVYTIPPPKEQMAKDKVSLTCMITDFFPEDITVEWQWNGQPAENYKNTQPIMDTDGSYFIYSKLNVQKSNWEAGNTFTCSVLHEGLHNHHTEKSLSHSPGK light: DVLMTQTPLSLPVSLGDQASISCRSSQSIVHSNGNTYLDWYLQKPGQSPKLLIYKVSNRFSGVPDRFSGSGSGTDFTLKISRVEAEDLGVYYCFQGSHVPTWTFGGGTKLEIKRADAAPTVSIFPPSSEQLTSGGASVVCFLNNFYPKDINVKWKIDGSERQNGVLNSWTDQDSKDSTYSMSSTLTLTKDEYERHNSYTCEATHKTSTSPIVKSFNRNEC", "values": [
      {"measurement": "fold binding against BSA control", "setting": "[2]", "result": "27 fold and 28 fold"}
    ]},
    {"molecule": "US28-13-5G6-1D3 antibody (antibody, V domains shown, also called US28-13-5G6-1D3 Ab; US28-13-5G6-1D3 rAb) VH: EVKLVESGGGLVQPGGSLRLACATSGFTFTDYYMSWVRQPPGKALEWLGFIRSKANGYTTEYSASVKGRFTISRDNSQSILYLQMNTLRSEDSATYYCARDERRTAWLAYWGQGTLVTVSA VL: DVLMTQTPLSLPVSLGDQASISCRSSQSIVHSNGNTYLDWYLQKPGQSPKLLIYKVSNRFSGVPDRFSGSGSGTDFTLKISRVEAEDLGVYYCFQGSHVPTWTFGGGTKLEIKR", "values": [
      {"measurement": "fold binding against uninfected cells", "setting": "[3]", "result": "~16", "unit": "fold"},
      {"measurement": "fold binding against normal CHO cells", "setting": "[4]", "result": "> 21", "unit": "fold"},
      {"measurement": "fold binding against US28 negative CHO cells", "setting": "[5]", "result": 15, "unit": "fold"},
      {"measurement": "percent of cells bound", "setting": "[6]", "result": 12.9, "unit": "%"},
      {"measurement": "percent of cells bound", "setting": "[7]", "result": 16.6, "unit": "%"},
      {"measurement": "percent of cells bound", "setting": "[8]", "result": 18.2, "unit": "%"},
      {"measurement": "fold binding against control CHO cells", "setting": "[9]", "result": "~15", "unit": "fold"},
      {"measurement": "% change in absolute level of binding between the DB and TB40/E forms of US28", "setting": "[10]", "result": "< 10", "unit": "%"},
      {"measurement": "percentage retention of binding activity between the DB and TB40/E forms of US28", "setting": "[11]", "result": "~100", "unit": "%"},
      {"measurement": "Binding specificity comparative to the specificity displayed by VUN100", "setting": "[12]", "result": 1.65, "unit": "ratio"}
    ]},
    {"molecule": "US28-14-4E4-1E8 antibody (antibody, mouse IgG1, kappa, V domains shown) VH: EVKLVESGGDLVKPGGSLKLSCAASGFTFSSYAMSWVRQTPEKRLEWVASISSGGRTYYPDSVKGRFTISRDNARNILYLQMSSLRSEDTAIYYCARGGTRHSYGNGFDYWGQGTTLTVSS VL: QIVLSQSPTIMSASPGEKVTMTCSASSSVSYMHWYQQKSGTSPKRWIYDSSKLASGVPARFSGSGSGTSYSLTISSMEAEDAATYYCQQWTSNPPITFGAGTKLELKR", "values": [
      {"measurement": "Binding specificity comparative to the specificity displayed by VUN100", "setting": "[12]", "result": 4.6, "unit": "ratio"}
    ]},
    {"molecule": "US28-13-1H3-1A10 antibody (antibody, mouse IgG1, kappa, V domains shown, also called 14-1H3-1A10; 14-IH3-IA10) VH: EVKLVESGGVLVKPGGSLKFSCAASGFTLSSHALSWVRQTPEKRLEWVASISSRGRTYYPDSVKGRFTVSRDNARNILYLQVSSLRSEDTAMYYCTRGGTHYSYGNGFDFWGQGTTLTVSS VL: QIVLTQSPAIMSASPGEKVTMTCSVSSSVSYMHWYQQKSGTSPKRWIYDTSKLASGVPARFSGSGSGTSYSLTISTMEAEDAATYYCQQWSNNPPITFGAGTKLELKR", "values": [
      {"measurement": "Binding specificity comparative to the specificity displayed by VUN100", "setting": "[12]", "result": 2.29, "unit": "ratio"}
    ]},
    {"molecule": "US28-13-1C10-1C10 antibody (antibody, mouse IgG1, kappa, V domains shown) VH: EVKLVESGGVLVKPGGSLKFSCAASGFTFSSHALSWVRQTPEKRLEWVASISSRGRTYYPDSVKGRFTVSRDNARNILYLQVSSLRSEDTAMYYCTRGGTHYSYGNGFDFWGQGTTLTVSS VL: QIVLTQSPAIMSASPGEKVTMTCSVSSSVSYMHWYQQKSGTSPKRWIYDTSKLASGVPARFSGSGSGTSYSLTISTMEAEDAATYYCQQWSNNPPITFGAGTKLELKR", "values": [
      {"measurement": "Binding specificity comparative to the specificity displayed by VUN100", "setting": "[12]", "result": 1.74, "unit": "ratio"}
    ]},
    {"molecule": "monovalent VUN100 (VHH, also called Mv VUN100; VUN100 Ab) VHH: EVQLVESGGGLVQPGGSLRLACAVSGPGLIFKFTGVAWYRRQVPGAKRGLVALITGDGATRYGDSVKGRFTVSRDIAAKRVYLEMNDLRSEDTAVYYCKTGEYWGQGTQVTVSS", "values": [
      {"measurement": "binding result", "setting": "[6]", "result": "no binding (tested: 50 µg/ml)"},
      {"measurement": "percent of cells bound", "setting": "[6]", "result": 1.41, "unit": "%"},
      {"measurement": "percent of cells bound", "setting": "[7]", "result": 6.91, "unit": "%"},
      {"measurement": "percent of cells bound", "setting": "[8]", "result": 4.33, "unit": "%"},
      {"measurement": "specificity (fold binding against control CHO cells)", "setting": "[9]", "result": "< 1", "unit": "fold"},
      {"measurement": "% change in absolute level of binding between the DB and TB40/E forms of US28", "setting": "[10]", "result": "> 35", "unit": "%"},
      {"measurement": "percentage retention of binding activity between the DB and TB40/E forms of US28", "setting": "[11]", "result": "≤ 60", "unit": "%"}
    ]},
    {"molecule": "bivalent VUN100 (VHH, also called VUN100b; BvVUN100) EVQLVESGGGLVQPGGSLRLACAVSGPGLIFKFTGVAWYRRQVPGAKRGLVALITGDGATRYGDSVKGRFTVSRDIAAKRVYLEMNDLRSEDTAVYYCKTGEYWGQGTQVTVSSGGGGSGGGGSGGGGSGGGGSGGGGSGGGGSEVQLVESGGGLVQPGGSLRLACAVSGPGLIFKFTGVAWYRRQVPGAKRGLVALITGDGATRYGDSVKGRFTVSRDIAAKRVYLEMNDLRSEDTAVYYCKTGEYWGQGTQVTVSS", "values": [
      {"measurement": "percent of cells bound", "setting": "[6]", "result": 2.58, "unit": "%"},
      {"measurement": "percent of cells bound", "setting": "[7]", "result": 9.24, "unit": "%"},
      {"measurement": "percent of cells bound", "setting": "[8]", "result": 5.2, "unit": "%"},
      {"measurement": "fold binding against control CHO cells", "setting": "[9]", "result": 2.43, "unit": "fold"},
      {"measurement": "% change in absolute level of binding between the DB and TB40/E forms of US28", "setting": "[10]", "result": "> 40", "unit": "%"},
      {"measurement": "percentage retention of binding activity between the DB and TB40/E forms of US28", "setting": "[11]", "result": "≤ 60", "unit": "%"}
    ]}
  ]
}
